Key:
[1] = pH stability of the enzyme (residual activity after treatment in buffers); format: physicochemical, Thermosyntropha lipolytica; settings: pH 5.0 to 9.5, 50° C. for 30 minutes, 100 mM buffer; activity at pH 9.0 as 100%
Experimental: The D-type amino acid dehydrogenase purified in Example 2 was heat-treated at 50° C. for 30 minutes in each 100 mM buffer solution (pH 1.5, 2.0, 2.5, 3.0, 3.5, 4.0, 4.5, 5.0, 5.5, 6.0, 6.5, 7.0, 7.5, 8.0, 8.5, 9.0, 9.5, 10.0, 10.5, 11.0, or 11.3), and the residual activity after standing for 5 minutes in ice was confirmed. […] The activity in the treatment at pH 9.0 was defined as 100%, and the residual activity after the treatment at other pH was calculated as the relative activity.

[2] = Optimum temperature in catalytic reaction; format: biochemical, Thermosyntropha lipolytica; settings: meso-diaminopimelic acid as substrate, NADP^+
Text: The measurement results are illustrated in FIG. 6.

[3] = Optimum pH in catalytic reaction (deamination of meso-diaminopimelic acid); format: biochemical, Thermosyntropha lipolytica; settings: NADP^+, 50° C.
Experimental: The optimum pH was evaluated for the D-type amino acid dehydrogenase obtained in Example 2. The activity of the enzyme was measured by determining an increase in absorbance at wavelength of 340 nm of NADPH produced by the enzymatic catalytic reaction.
The absorbance was measured by an ultraviolet-visible spectrophotometer UV-1800 (available from SHIMADZU). The specific activity of the enzyme was calculated from the concentration of the enzyme used and enzyme dilution rate using the obtained absorbance change and the following equation.

[4] = Thermal stability of the enzyme (residual activity after heat treatment); format: physicochemical, Thermosyntropha lipolytica; settings: 70° C., 30 minutes, 10 mM phosphate buffer pH 7.2; activity at 50° C. as 100%
Experimental: The D-type amino acid dehydrogenase purified in Example 2 was heat-treated for 30 minutes under various temperature conditions (50, 55, 60, 65, or 70° C.) in 10 mM phosphate buffer solution (pH 7.2), and the residual activity after standing for 5 minutes in ice was confirmed. […] The residual activity after treatment at other temperatures was calculated as a relative activity, with the activity at 50° C. as 100%.

[5] = Activity-staining with D-alanine or L-alanine as substrate; format: biochemical, Thermosyntropha lipolytica; settings: 10 mM D-alanine or L-alanine, 1.25 mM NADP^+, pH 8.0, 50° C., 30 minutes
Experimental: The activity was evaluated for the D-type amino acid dehydrogenase obtained in Example 2 above. The activity of the enzyme was evaluated by an activity-staining method due to a catalytic reaction of the enzyme. More specifically, an appropriate amount of enzyme solution was subjected to disc gel electrophoresis. […] The 2-(4-iodophenyl)-3-(4-nitrophenyl)-5-phenyl-2H-tetrazolium chloride in the reaction solution is reduced to form a […] formazan. A reaction formula is indicated below. In the following reaction formula, the D-type amino acid dehydrogenase is referred to as “meso-DAPDH”.

B1: D-type amino acid dehydrogenase: D-type amino acid dehydrogenase derived from Thermosyntropha lipolytica, amino acid sequence SEQ ID NO: 2, hexamer (protein, listed as Thermosyntropha lipolytica)
chain: MGEKIRVAIVGYGNIGRYALDAIKAAPDMELAGVVRRSSSLGDKPAELADVPVVGSIKELTGVKVALLCTPTRSVPEYAREILALGINTVDSYDIHGQLADLRLELDKVAKEHNAVAVISAGWDPGTDSMVRCMFEFMAPKGITYTNFGPGMSMGHSVAVKAVKGVKNALSMTIPLGTGVHRRMVYVELEPGADFAQVEKAVKTDPYFVKDETHVIQVEDVDALIDMGHGVLMERKGVSGGTHNQLLSFSMRINNPALTAQIMVASARASVKQKPGAYTMIQIPIIDYMYGDPDEIIRQLV
modifications: hexamer
[1]
  residual activity after pH treatment: ≥ 90%
[2]
  optimum temperature for activity: about 55 °C
[3]
  optimum pH for activity: 10.5
[4]
  residual activity after heat treatment: about 74%
[5]
  stereoselectivity for substrate (activity-staining): selectively acts on the D-amino acid
